T1: ARHGAP21, Q5T5U3
T1 sequence (Q5T5U3 45-169, limits assumed, looked up): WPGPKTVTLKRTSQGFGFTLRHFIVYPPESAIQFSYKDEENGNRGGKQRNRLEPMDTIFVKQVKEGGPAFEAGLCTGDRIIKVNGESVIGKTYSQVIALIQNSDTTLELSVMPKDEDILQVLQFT

T2: ARHGEF11, O15085
T2 sequence (O15085 42-136, limits assumed, looked up): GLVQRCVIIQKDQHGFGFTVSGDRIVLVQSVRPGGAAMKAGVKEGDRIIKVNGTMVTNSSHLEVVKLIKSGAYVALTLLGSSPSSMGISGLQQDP

T3: CARD11, Q9BXL7
T3 sequence (Q9BXL7 662-765, limits assumed, looked up): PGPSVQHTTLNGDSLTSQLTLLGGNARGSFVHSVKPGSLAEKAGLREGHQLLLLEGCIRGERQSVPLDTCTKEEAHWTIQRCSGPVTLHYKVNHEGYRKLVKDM

T4: DVL3, Q92997
T4 sequence (Q92997 244-331, limits assumed, looked up): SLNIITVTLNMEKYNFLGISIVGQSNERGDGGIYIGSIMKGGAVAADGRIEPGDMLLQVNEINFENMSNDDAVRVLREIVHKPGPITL

T5: LIN7C, Q9NUP9
T5 sequence (Q9NUP9 88-185, limits assumed, looked up): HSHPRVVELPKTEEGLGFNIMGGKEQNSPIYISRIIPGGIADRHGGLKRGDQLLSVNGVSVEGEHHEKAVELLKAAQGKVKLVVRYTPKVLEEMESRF

T6: MPDZ_10, O75970
T6 sequence (O75970 1624-1722, limits assumed, looked up): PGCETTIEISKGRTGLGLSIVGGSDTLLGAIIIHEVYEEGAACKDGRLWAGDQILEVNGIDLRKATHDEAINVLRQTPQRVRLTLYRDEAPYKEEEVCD

T7: MPDZ_5, O75970
T7 sequence (O75970 695-796, limits assumed, looked up): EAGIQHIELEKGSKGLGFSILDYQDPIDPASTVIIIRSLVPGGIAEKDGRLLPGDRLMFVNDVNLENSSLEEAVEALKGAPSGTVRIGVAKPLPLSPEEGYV

T8: MPP6, Q9NZW5
T8 sequence (Q9NZW5 125-219, limits assumed, looked up): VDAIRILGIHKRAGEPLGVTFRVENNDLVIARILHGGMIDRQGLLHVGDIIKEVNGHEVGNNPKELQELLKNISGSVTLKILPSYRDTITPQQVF

T9: PTPN13_1, Q12923
T9 sequence (Q12923 1088-1188, limits assumed, looked up): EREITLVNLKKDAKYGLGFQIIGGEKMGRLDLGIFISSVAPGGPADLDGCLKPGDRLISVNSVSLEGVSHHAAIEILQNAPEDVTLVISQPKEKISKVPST

T10: RADIL, Q96JH8
T10 sequence (Q96JH8 971-1071, limits assumed, looked up): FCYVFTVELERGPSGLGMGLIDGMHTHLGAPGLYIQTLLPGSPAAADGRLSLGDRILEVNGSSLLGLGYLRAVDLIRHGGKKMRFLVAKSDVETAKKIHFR

T11: RAPGEF6, Q8TEU7
T11 sequence (Q8TEU7 525-625, limits assumed, looked up): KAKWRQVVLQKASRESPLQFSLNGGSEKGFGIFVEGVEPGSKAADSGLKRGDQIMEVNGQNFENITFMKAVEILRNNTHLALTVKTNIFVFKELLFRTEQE

T12: SIPA1L2, Q9P2F8
T12 sequence (Q9P2F8 945-1036, limits assumed, looked up): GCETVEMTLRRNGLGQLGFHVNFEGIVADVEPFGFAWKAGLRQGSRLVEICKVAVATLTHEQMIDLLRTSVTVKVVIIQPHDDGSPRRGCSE

B1: HPV30-E6, P36809 (peptide)
chain: RHTTSTETAV
B2: TMIGD1, Q6UXZ0 (peptide)
chain: DKDPHSETAL
B3: FRMPD4, Q14CM0 (peptide)
chain: RLPKIKETTV

Experiments:
Test in all cases: holdup assay
Set-up in all cases: key: below the threshold = too weak to quantify, mostly under pKd 3.1 to 4
Settings in all cases: plain residues with an end cap or a label only (N-terminal biotin on a linker: ttds)
[1] = molecular target: T1, ARHGAP21, Q5T5U3
[2] = molecular target: T2, ARHGEF11, O15085
[3] = molecular target: ARHGEF12, Q9NZN5-2
[4] = molecular target: T3, CARD11, Q9BXL7
[5] = molecular target: T4, DVL3, Q92997
[6] = molecular target: GIPC2, Q8TF65
[7] = molecular target: GRIP2_5, Q9C0E4
[8] = molecular target: HTRA2, O43464
[9] = molecular target: IL16_4, Q14005
[10] = molecular target: Inadl_2, Q8NI35
[11] = molecular target: Inadl_3, Q8NI35
[12] = molecular target: Inadl_6, Q8NI35
[13] = molecular target: T5, LIN7C, Q9NUP9
[14] = molecular target: MAGI1_2, Q96QZ7
[15] = molecular target: T6, MPDZ_10, O75970
[16] = molecular target: T7, MPDZ_5, O75970
[17] = molecular target: T8, MPP6, Q9NZW5
[18] = molecular target: NHERF4_4, Q86UT5
[19] = molecular target: PDLIM1, O00151
[20] = molecular target: T9, PTPN13_1, Q12923
[21] = molecular target: PTPN3, P26045
[22] = molecular target: T10, RADIL, Q96JH8
[23] = molecular target: T11, RAPGEF6, Q8TEU7
[24] = molecular target: T12, SIPA1L2, Q9P2F8
[25] = molecular target: TJP1_3, Q07157
TJP1_3, Q07157, sequence (Q07157 416-512): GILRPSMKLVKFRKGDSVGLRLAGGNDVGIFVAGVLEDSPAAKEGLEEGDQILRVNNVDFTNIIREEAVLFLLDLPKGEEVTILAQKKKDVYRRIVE

NHERF4_4, Q86UT5, sequence (Q86UT5 464-550): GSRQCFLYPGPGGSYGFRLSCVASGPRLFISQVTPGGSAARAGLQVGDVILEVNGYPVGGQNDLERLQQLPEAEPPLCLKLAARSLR
ARHGEF12, Q9NZN5-2, sequence (Q9NZN5 other isoform, or with tags, fused parts or gaps): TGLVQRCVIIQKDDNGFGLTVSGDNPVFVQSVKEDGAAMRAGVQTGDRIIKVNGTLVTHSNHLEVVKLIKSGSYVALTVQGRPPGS
PDLIM1, O00151, sequence (O00151 1-87): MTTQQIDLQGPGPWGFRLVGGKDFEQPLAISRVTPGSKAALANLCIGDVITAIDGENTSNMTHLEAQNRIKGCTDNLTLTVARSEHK
Inadl_3, Q8NI35, sequence (Q8NI35 359-469): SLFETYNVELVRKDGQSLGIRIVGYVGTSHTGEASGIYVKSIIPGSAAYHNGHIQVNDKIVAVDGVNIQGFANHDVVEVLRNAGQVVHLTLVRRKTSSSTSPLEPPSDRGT
GIPC2, Q8TF65, sequence (Q8TF65 112-203): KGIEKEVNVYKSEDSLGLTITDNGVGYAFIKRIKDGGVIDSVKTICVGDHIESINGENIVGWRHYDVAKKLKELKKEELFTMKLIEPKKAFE
GRIP2_5, Q9C0E4, sequence (Q9C0E4 544-642): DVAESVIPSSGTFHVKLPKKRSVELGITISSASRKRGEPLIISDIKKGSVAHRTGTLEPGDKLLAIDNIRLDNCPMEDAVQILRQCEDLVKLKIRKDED
Inadl_6, Q8NI35, sequence (Q8NI35 1058-1167): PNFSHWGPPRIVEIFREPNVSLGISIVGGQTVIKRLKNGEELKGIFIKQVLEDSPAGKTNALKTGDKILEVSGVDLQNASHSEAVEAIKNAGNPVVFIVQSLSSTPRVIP
PTPN3, P26045, sequence (P26045 505-587): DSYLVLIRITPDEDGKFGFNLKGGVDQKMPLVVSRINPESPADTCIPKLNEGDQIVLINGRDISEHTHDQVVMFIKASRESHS
IL16_4, Q14005, sequence (Q14005 1229-1329): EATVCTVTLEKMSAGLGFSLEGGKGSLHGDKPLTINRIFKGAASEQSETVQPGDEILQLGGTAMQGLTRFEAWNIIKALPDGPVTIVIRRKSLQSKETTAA
MAGI1_2, Q96QZ7, sequence (Q96QZ7 456-580): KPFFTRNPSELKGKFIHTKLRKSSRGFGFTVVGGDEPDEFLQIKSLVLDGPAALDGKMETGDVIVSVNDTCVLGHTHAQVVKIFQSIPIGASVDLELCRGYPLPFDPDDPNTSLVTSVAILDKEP
Inadl_2, Q8NI35, sequence (Q8NI35 238-335): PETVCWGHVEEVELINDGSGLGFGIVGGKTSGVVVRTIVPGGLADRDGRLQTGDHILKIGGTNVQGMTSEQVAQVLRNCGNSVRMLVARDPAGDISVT
HTRA2, O43464, sequence (O43464 355-458): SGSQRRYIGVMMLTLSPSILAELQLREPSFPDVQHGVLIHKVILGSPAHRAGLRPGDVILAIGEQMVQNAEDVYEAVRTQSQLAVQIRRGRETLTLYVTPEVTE

Row | Binder | pKd [1] | pKd [2] | pKd [3] | pKd [4] | pKd [5] | pKd [6] | pKd [7] | pKd [8] | pKd [9] | pKd [10] | pKd [11] | pKd [12] | pKd [13] | pKd [14] | pKd [15] | pKd [16] | pKd [17] | pKd [18] | pKd [19] | pKd [20] | other results
1 | B1 | below the threshold | 4.35 | 4.2 | below the threshold | below the threshold | 3.96 | 3.75 | below the threshold | below the threshold | below the threshold | 3.77 | below the threshold | 4.19 | 4.39 | below the threshold | below the threshold | below the threshold | below the threshold | below the threshold | below the threshold | pKd [21]: 5.13; pKd [22]: below the threshold; pKd [23]: below the threshold; pKd [24]: below the threshold; pKd [25]: below the threshold
2 | B2 | below the threshold | 4.28 | 4.17 | below the threshold | below the threshold | below the threshold | below the threshold | below the threshold | below the threshold | below the threshold | below the threshold | 3.53 | below the threshold | below the threshold | below the threshold | below the threshold | below the threshold | below the threshold | below the threshold | below the threshold | pKd [21]: 5.02; pKd [22]: below the threshold; pKd [23]: below the threshold; pKd [24]: below the threshold; pKd [25]: below the threshold
3 | B3 | below the threshold | 3.71 | 4.23 | below the threshold | 3.43 | below the threshold | below the threshold | below the threshold | below the threshold | below the threshold | below the threshold | below the threshold | 5.29 | 4.49 | below the threshold | below the threshold | below the threshold | below the threshold | below the threshold | below the threshold | pKd [21]: 4.89; pKd [22]: below the threshold; pKd [23]: below the threshold; pKd [24]: below the threshold; pKd [25]: below the threshold

— paper PMC9482650, “Quantitative fragmentomics allow affinity mapping of interactomes” (Nature Communications, 2022)
